# Data taken from IntAct's records for PubMed 19955405.
# B1: Serine/threonine-protein kinase SRK2E (Arabidopsis thaliana (Mouse-ear cress)), Q940H6 (parent)
# chain: MDRPAVSGPMDLPIMHDSDRYELVKDIGSGNFGVARLMRDKQSNELVAVKYIERGEKIDENVKREIINHRSLRHPNIVRFKEVILTPTHLAIVMEYASGGELFERICNAGRFSEDEARFFFQQLISGVSYCHAMQVCHRDLKLENTLLDGSPAPRLKICDFGYSKSSVLHSQPKSTVGTPAYIAPEVLLKKEYDGKVADVWSCGVTLYVMLVGAYPFEDPEEPKNFRKTIHRILNVQYAIPDYVHISPECRHLISRIFVADPAKRISIPEIRNHEWFLKNLPADLMNDNTMTTQFDESDQPGQSIEEIMQIIAEATVPPAGTQNLNHYLTGSLDIDDDMEEDLESDLDDLDIDSSGEIVYAM
# partner: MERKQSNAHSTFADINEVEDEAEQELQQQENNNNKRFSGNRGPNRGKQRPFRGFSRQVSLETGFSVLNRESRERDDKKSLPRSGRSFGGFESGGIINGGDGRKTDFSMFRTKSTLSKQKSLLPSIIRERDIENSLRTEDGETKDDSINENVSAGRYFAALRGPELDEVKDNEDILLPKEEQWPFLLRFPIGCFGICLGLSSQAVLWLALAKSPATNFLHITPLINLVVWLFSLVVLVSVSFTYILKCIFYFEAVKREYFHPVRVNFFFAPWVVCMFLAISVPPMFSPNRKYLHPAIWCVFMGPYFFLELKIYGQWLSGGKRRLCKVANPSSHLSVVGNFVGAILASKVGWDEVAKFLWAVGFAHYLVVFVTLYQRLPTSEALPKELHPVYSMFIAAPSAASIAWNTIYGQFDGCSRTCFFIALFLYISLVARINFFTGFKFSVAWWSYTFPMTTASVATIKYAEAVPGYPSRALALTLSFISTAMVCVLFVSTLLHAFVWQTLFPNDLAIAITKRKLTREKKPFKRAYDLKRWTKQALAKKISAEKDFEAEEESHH
# Variants of: B1
# Settings: with slac1_arath SLAC1, Q9LD83
row,Variant,effect of a mutation on the interaction
1,MDRPAVSGPMDLPIMHDSDRYELVKDIGSGNFGVARLMRDKQSNELVAVKYIERGEKIDENVKREIINHRSLRHPNIVRFKEVILTPTHLAIVMEYASGGELFERICNAGRFSEDEARFFFQQLISGVSYCHAMQVCHRALKLENTLLDGSPAPRLKICDFGYSKSSVLHSQPKSTVGTPAYIAPEVLLKKEYDGKVADVWSCGVTLYVMLVGAYPFEDPEEPKNFRKTIHRILNVQYAIPDYVHISPECRHLISRIFVADPAKRISIPEIRNHEWFLKNLPADLMNDNTMTTQFDESDQPGQSIEEIMQIIAEATVPPAGTQNLNHYLTGSLDIDDDMEEDLESDLDDLDIDSSGEIVYAM [D140A],disrupting interaction
